Legend:
[1] = target: ribosomes (mono- and poly-ribosomes) of HEK293 cells (human (endogenous in HEK293))
[2] = target: di-ribosome translation complex stalled on a poly(A)-containing transcript in rabbit reticulocyte lysate (rabbit (endogenous in reticulocyte lysate)); test: pull-down + co-sedimentation; poly(A)-containing transcript translated in RRL supplemented with FLAG-tagged ZNF598; translation complexes affinity purified via the Twin-Strep tag of the nascent chain (StrepTactin, RNC buffer: 50 mM HEPES pH 7.6, 100 mM KOAc, 5 mM Mg(OAc)2, biotin elution), then sucrose gradient; immunoblot for ZNF598, uL2, eS24

Binder | ubiquitinated eS10 (immunoblot) in HEK293 cells pre-treated 15 min with low concentrations of anisomycin, emetine or didemnin B [1] [%] | percent of ZNF598 co-fractionating with ribosomes [2] [%]
endogenous ZNF598 (enzyme) MAAAGGAEGRRAALEAAAAAAPERGGGSCVLCCGDLEATALGRCDHPVCYRCSTKMRVLCEQRYCAVCREELRQVVFGKKLPAFATIPIHQLQHEKKYDIYFADGKVYALYRQLLQHECPRCPELPPFSLFGDLEQHMRRQHELFCCRLCLQHLQIFTYERKWYSRKDLARHRMQGDPDDTSHRGHPLCKFCDERYLDNDELLKHLRRDHYFCHFCDSDGAQDYYSDYAYLREHFREKHFLCEEGRCSTEQFTHAFRTEIDLKAHRTACHSRSRAEARQNRHIDLQFSYAPRHSRRNEGVVGGEDYEEVDRYSRQGRVARAGTRGAQQSRRGSWRYKREEEDREVAAAVRASVAAQQQEEARRSEDQEEGGRPKKEEAAARGPEDPRGPRRSPRTQGEGPGPKETSTNGPVSQEAFSVTGPAAPGCVGVPGALPPPSPKLKDEDFPSLSASTSSSCSTAATPGPVGLALPYAIPARGRSAFQEEDFPALVSSVPKPGTAPTSLVSAWNSSSSSKKVAQPPLSAQATGSGQPTRKAGKGSRGGRKGGPPFTQEEEEDGGPALQELLSTRPTGSVSSTLGLASIQPSKVGKKKKVGSEKPGTTLPQPPPATCPPGALQAPEAPASRAEGPVAVVVNGHTEGPAPARSAPKEPPGLPRPLGSFPCPTPQEDFPALGGPCPPRMPPPPGFSAVVLLKGTPPPPPPGLVPPISKPPPGFSGLLPSPHPACVPSPATTTTTKAPRLLPAPRAYLVPENFRERNLQLIQSIRDFLQSDEARFSEFKSHSGEFRQGLISAAQYYKSCRDLLGENFQKVFNELLVLLPDTAKQQELLSAHTDFCNREKPLSTKSKKNKKSAWQATTQQAGLDCRVCPTCQQVLAHGDASSHQALHAARDDDFPSLQAIARIIT | 10 | –
ZNF598-TEV-3xFlag (human) (enzyme) MAAAGGAEGRRAALEAAAAAAPERGGGSCVLCCGDLEATALGRCDHPVCYRCSTKMRVLCEQRYCAVCREELRQVVFGKKLPAFATIPIHQLQHEKKYDIYFADGKVYALYRQLLQHECPRCPELPPFSLFGDLEQHMRRQHELFCCRLCLQHLQIFTYERKWYSRKDLARHRMQGDPDDTSHRGHPLCKFCDERYLDNDELLKHLRRDHYFCHFCDSDGAQDYYSDYAYLREHFREKHFLCEEGRCSTEQFTHAFRTEIDLKAHRTACHSRSRAEARQNRHIDLQFSYAPRHSRRNEGVVGGEDYEEVDRYSRQGRVARAGTRGAQQSRRGSWRYKREEEDREVAAAVRASVAAQQQEEARRSEDQEEGGRPKKEEAAARGPEDPRGPRRSPRTQGEGPGPKETSTNGPVSQEAFSVTGPAAPGCVGVPGALPPPSPKLKDEDFPSLSASTSSSCSTAATPGPVGLALPYAIPARGRSAFQEEDFPALVSSVPKPGTAPTSLVSAWNSSSSSKKVAQPPLSAQATGSGQPTRKAGKGSRGGRKGGPPFTQEEEEDGGPALQELLSTRPTGSVSSTLGLASIQPSKVGKKKKVGSEKPGTTLPQPPPATCPPGALQAPEAPASRAEGPVAVVVNGHTEGPAPARSAPKEPPGLPRPLGSFPCPTPQEDFPALGGPCPPRMPPPPGFSAVVLLKGTPPPPPPGLVPPISKPPPGFSGLLPSPHPACVPSPATTTTTKAPRLLPAPRAYLVPENFRERNLQLIQSIRDFLQSDEARFSEFKSHSGEFRQGLISAAQYYKSCRDLLGENFQKVFNELLVLLPDTAKQQELLSAHTDFCNREKPLSTKSKKNKKSAWQATTQQAGLDCRVCPTCQQVLAHGDASSHQALHAARDDDFPSLQAIARIIT | – | 70 to 80
